Experimental data published in US20250304927A1, “PRO-PEPTIDE VARIANTS FOR MODULATING ACTIVITY OF TRANSGLUTAMINASES” (CURIE CO. INC., priority 2022, published 2025).

Key:
[1] = molecular target: T1, thermostable variant of Streptomyces mobaraensis transglutaminase (Streptomyces mobaraensis, UniProt P81453 79-407); assay: cell-based or functional assay
T1 sequence: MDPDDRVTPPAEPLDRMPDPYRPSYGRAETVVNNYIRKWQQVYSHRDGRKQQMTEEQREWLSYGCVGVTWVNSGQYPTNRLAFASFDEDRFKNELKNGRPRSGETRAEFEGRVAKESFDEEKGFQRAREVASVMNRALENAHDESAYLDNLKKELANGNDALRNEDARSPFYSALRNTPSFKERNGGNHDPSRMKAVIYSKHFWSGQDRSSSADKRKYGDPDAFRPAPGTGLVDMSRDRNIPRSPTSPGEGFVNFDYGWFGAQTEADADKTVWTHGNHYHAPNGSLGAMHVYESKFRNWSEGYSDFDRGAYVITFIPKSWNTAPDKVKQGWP

[2] = molecular target: T1, thermostable variant of Streptomyces …; assay: cell-based or functional assay; remark: listed apart in the source

Binder: MDNGAGLETKSYAETYRLTADDVANINALNESAPAASSAGPSFRAP [pro-peptide variant E7L]
- Improvement in pH responsiveness of inhibitory peptide relative to WT [1]: > 1.2 fold
- Improvement in binding affinity of inhibitory peptide relative to WT [2]: > 1.2 fold

Binder: MDNGAGETTKSYAETYRLTADDVANINALNESAPAASSAGPSFRAP [pro-peptide variant E8T]
- Improvement in pH responsiveness of inhibitory peptide relative to WT [1]: > 1.2 fold
- Improvement in binding affinity of inhibitory peptide relative to WT [2]: > 1.2 fold

Binder: MDNGAGEELKSYAETYRLTADDVANINALNESAPAASSAGPSFRAP [pro-peptide variant T9L]
- Improvement in pH responsiveness of inhibitory peptide relative to WT [1]: > 1.2 fold
- Improvement in binding affinity of inhibitory peptide relative to WT [2]: > 1.2 fold

Binder: MDNGAGEEKKSYAETYRLTADDVANINALNESAPAASSAGPSFRAP [pro-peptide variant T9K]
- Improvement in pH responsiveness of inhibitory peptide relative to WT [1]: > 1.2 fold
- Improvement in binding affinity of inhibitory peptide relative to WT [2]: > 1.2 fold

Binder: MDNGAGECTKSYAETYRLTADDVANINALNESAPAASSAGPSFRAP [pro-peptide variant E8C]
- Improvement in pH responsiveness of inhibitory peptide relative to WT [1]: > 1.2 fold
- Improvement in binding affinity of inhibitory peptide relative to WT [2]: > 1.2 fold

Binder: MDNGAGENTKSYAETYRLTADDVANINALNESAPAASSAGPSFRAP [pro-peptide variant E8N]
- Improvement in pH responsiveness of inhibitory peptide relative to WT [1]: > 1.2 fold
- Improvement in binding affinity of inhibitory peptide relative to WT [2]: > 1.2 fold

Binder: MDNGAGEEGKSYAETYRLTADDVANINALNESAPAASSAGPSFRAP [pro-peptide variant T9G]
- Improvement in pH responsiveness of inhibitory peptide relative to WT [1]: > 1.2 fold
- Improvement in binding affinity of inhibitory peptide relative to WT [2]: > 1.2 fold

Binder: MDNGAGEEHKSYAETYRLTADDVANINALNESAPAASSAGPSFRAP [pro-peptide variant T9H]
- Improvement in pH responsiveness of inhibitory peptide relative to WT [1]: > 1.2 fold
- Improvement in binding affinity of inhibitory peptide relative to WT [2]: > 1.2 fold

Binder: MDNGAGEEAKSYAETYRLTADDVANINALNESAPAASSAGPSFRAP [pro-peptide variant T9A]
- Improvement in pH responsiveness of inhibitory peptide relative to WT [1]: > 1.2 fold
- Improvement in binding affinity of inhibitory peptide relative to WT [2]: > 1.2 fold

Binder: MDNGAGTETKSYAETYRLTADDVANINALNESAPAASSAGPSFRAP [pro-peptide variant E7T]
- Improvement in pH responsiveness of inhibitory peptide relative to WT [1]: > 1.2 fold
- Improvement in binding affinity of inhibitory peptide relative to WT [2]: > 1.2 fold

Binder: MDNGAGEQTKSYAETYRLTADDVANINALNESAPAASSAGPSFRAP [pro-peptide variant E8Q]
- Improvement in pH responsiveness of inhibitory peptide relative to WT [1]: > 5 fold
- Improvement in binding affinity of inhibitory peptide relative to WT [2]: > 1.2 fold

Binder: MDNGAGVETKSYAETYRLTADDVANINALNESAPAASSAGPSFRAP [pro-peptide variant E7V]
- Improvement in pH responsiveness of inhibitory peptide relative to WT [1]: > 5 fold
- Improvement in binding affinity of inhibitory peptide relative to WT [2]: > 1.2 fold

Binder: MDNGAGELTKSYAETYRLTADDVANINALNESAPAASSAGPSFRAP [pro-peptide variant E8L]
- Improvement in pH responsiveness of inhibitory peptide relative to WT [1]: > 1.2 fold
- Improvement in binding affinity of inhibitory peptide relative to WT [2]: > 1.2 fold

Binder: MDNGAGERTKSYAETYRLTADDVANINALNESAPAASSAGPSFRAP [pro-peptide variant E8R]
- Improvement in pH responsiveness of inhibitory peptide relative to WT [1]: > 1.2 fold
- Improvement in binding affinity of inhibitory peptide relative to WT [2]: > 1.2 fold
